These are literature values, as cited in patent publication US20090068653A1, “BIOCHEMICAL AND GENETIC ANALYSIS FOR PREDICTION OF BREAST CANCER RISK” (priority 2006, published 2009).

Read-outs that look alike come from different tables or passages of the source.

The subject of one data set is renal cancer. The conditions noted are these: hamster, in vivo; cited from earlier work.
For data set [1] the following is noted: cited from earlier work.
The test system of another data set is CYP1B1. The conditions noted are these: cited from earlier work.

Take `C[C@]12CC[C@@H]3c4cc(O)c(O)cc4CC[C@H]3[C@@H]1CCC2=O` [2-OHE1]: in the data set with renal cancer, the “induction of renal cancer” value is reported as “not”.
Consider `CC/C(=C(\c1ccccc1)c1ccc(OCCNC)cc1)c1ccccc1` [N-desmethyl tamoxifen], for which the “average steady-state plasma concentration” value in data set [1] (10 mg tamoxifen twice daily for 3 months, patients) is on record as 336 ng/mL; in data set [1] (20 mg tamoxifen once daily for 3 months), 353 ng/mL. Also, the “time to steady state concentrations after initiation of therapy” value in data set [1] (in vivo) is given as “about 8 weeks”. Moreover, the “average peak plasma concentration” value in data set [1] (single oral dose of 20 mg tamoxifen) is given as 15 ng/mL. Also, the half-life result in data set [1] (suggested by time to steady state) was “approximately 14 days”.

B1: 48Gly-119Ala-432Val-453Asn: CYP1B1 variant enzyme (protein, UniProt Q16678 1-543, looked up, variant R48G)
Cytochrome P450 1B1: MGTSLSPNDPWPLNPLSIQQTTLLLLLSVLATVHVGQRLLRQRRRQLGSAPPGPFAWPLIGNAAAVGQAAHLSFARLARRYGDVFQIRLGSCPIVVLNGERAIHQALVQQGSAFADRPAFASFRVVSGGRSMAFGHYSEHWKVQRRAAHSMMRNFFTRQPRSRQVLEGHVLSEARELVALLVRGSADGAFLDPRPLTVVAVANVMSAVCFGCRYSHDDPEFRELLSHNEEFGRTVGAGSLVDVMPWLQYFPNPVRTVFREFEQLNRNFSNFILDKFLRHCESLRPGAAPRDMMDAFILSAEKKAAGDSHGGGARLDLENVPATITDIFGASQDTLSTALQWLLLLFTRYPDVQTRVQAELDQVVGRDRLPCMGDQPNLPYVLAFLYEAMRFSSFVPVTIPHATTANTSVLGYHIPKDTVVFVNQWSVNHDPLKWPNPENFDPARFLDKDGLINKDLTSRVMIFSVGKRRCIGEELSKMQLFLFISILAHQCDFRANPNEPAKMNFSYGLTIKPKSFKVNVTLRESMELLDSAVQNLQAKETCQ
Usually Km stands for the concentration of substrate that gives half-maximal velocity. Consider B1, for which the Michaelis constant (Km) was 12 µM in the data set with CYP1B1 (reaction E2 → 2-OHE2, CYP1B1) and 6.6 µM in the data set with CYP1B1 (reaction E2 → 4-OHE2, CYP1B1).

B2: 48Gly-119Ser-432Val-453Ser: CYP1B1 variant enzyme (protein, UniProt Q16678 1-543, looked up, variant R48G A119S N453S)
Cytochrome P450 1B1: MGTSLSPNDPWPLNPLSIQQTTLLLLLSVLATVHVGQRLLRQRRRQLGSAPPGPFAWPLIGNAAAVGQAAHLSFARLARRYGDVFQIRLGSCPIVVLNGERAIHQALVQQGSAFADRPSFASFRVVSGGRSMAFGHYSEHWKVQRRAAHSMMRNFFTRQPRSRQVLEGHVLSEARELVALLVRGSADGAFLDPRPLTVVAVANVMSAVCFGCRYSHDDPEFRELLSHNEEFGRTVGAGSLVDVMPWLQYFPNPVRTVFREFEQLNRNFSNFILDKFLRHCESLRPGAAPRDMMDAFILSAEKKAAGDSHGGGARLDLENVPATITDIFGASQDTLSTALQWLLLLFTRYPDVQTRVQAELDQVVGRDRLPCMGDQPNLPYVLAFLYEAMRFSSFVPVTIPHATTANTSVLGYHIPKDTVVFVNQWSVNHDPLKWPNPENFDPARFLDKDGLISKDLTSRVMIFSVGKRRCIGEELSKMQLFLFISILAHQCDFRANPNEPAKMNFSYGLTIKPKSFKVNVTLRESMELLDSAVQNLQAKETCQ
As for B2, the Km is 34 µM in the data set with CYP1B1 (reaction E2 → 2-OHE2, CYP1B1) and 15 µM with CYP1B1 (reaction E2 → 4-OHE2, CYP1B1).

B3: 48Arg-119Ser-432Val-453Ser: CYP1B1 variant enzyme (protein, UniProt Q16678 1-543, looked up, variant A119S N453S)
Cytochrome P450 1B1: MGTSLSPNDPWPLNPLSIQQTTLLLLLSVLATVHVGQRLLRQRRRQLRSAPPGPFAWPLIGNAAAVGQAAHLSFARLARRYGDVFQIRLGSCPIVVLNGERAIHQALVQQGSAFADRPSFASFRVVSGGRSMAFGHYSEHWKVQRRAAHSMMRNFFTRQPRSRQVLEGHVLSEARELVALLVRGSADGAFLDPRPLTVVAVANVMSAVCFGCRYSHDDPEFRELLSHNEEFGRTVGAGSLVDVMPWLQYFPNPVRTVFREFEQLNRNFSNFILDKFLRHCESLRPGAAPRDMMDAFILSAEKKAAGDSHGGGARLDLENVPATITDIFGASQDTLSTALQWLLLLFTRYPDVQTRVQAELDQVVGRDRLPCMGDQPNLPYVLAFLYEAMRFSSFVPVTIPHATTANTSVLGYHIPKDTVVFVNQWSVNHDPLKWPNPENFDPARFLDKDGLISKDLTSRVMIFSVGKRRCIGEELSKMQLFLFISILAHQCDFRANPNEPAKMNFSYGLTIKPKSFKVNVTLRESMELLDSAVQNLQAKETCQ
For B3, the Km with CYP1B1 (reaction E2 → 2-OHE2, CYP1B1) was 36 µM; in the data set on CYP1B1 (reaction E2 → 4-OHE2, CYP1B1), 17 µM.

B4: 48Gly-119Ala-432Val-453Ser: CYP1B1 variant enzyme (protein, UniProt Q16678 1-543, looked up, variant R48G N453S)
Cytochrome P450 1B1: MGTSLSPNDPWPLNPLSIQQTTLLLLLSVLATVHVGQRLLRQRRRQLGSAPPGPFAWPLIGNAAAVGQAAHLSFARLARRYGDVFQIRLGSCPIVVLNGERAIHQALVQQGSAFADRPAFASFRVVSGGRSMAFGHYSEHWKVQRRAAHSMMRNFFTRQPRSRQVLEGHVLSEARELVALLVRGSADGAFLDPRPLTVVAVANVMSAVCFGCRYSHDDPEFRELLSHNEEFGRTVGAGSLVDVMPWLQYFPNPVRTVFREFEQLNRNFSNFILDKFLRHCESLRPGAAPRDMMDAFILSAEKKAAGDSHGGGARLDLENVPATITDIFGASQDTLSTALQWLLLLFTRYPDVQTRVQAELDQVVGRDRLPCMGDQPNLPYVLAFLYEAMRFSSFVPVTIPHATTANTSVLGYHIPKDTVVFVNQWSVNHDPLKWPNPENFDPARFLDKDGLISKDLTSRVMIFSVGKRRCIGEELSKMQLFLFISILAHQCDFRANPNEPAKMNFSYGLTIKPKSFKVNVTLRESMELLDSAVQNLQAKETCQ
Regarding B4, the Km in the data set on CYP1B1 (reaction E2 → 2-OHE2, CYP1B1) is 75 µM; in the data set with CYP1B1 (reaction E2 → 4-OHE2, CYP1B1) it was 28 µM.

B5: 48Arg-119Ala-432Val-453Asn (wt): wild-type CYP1B1 enzyme (protein, UniProt Q16678 1-543, looked up)
Cytochrome P450 1B1: MGTSLSPNDPWPLNPLSIQQTTLLLLLSVLATVHVGQRLLRQRRRQLRSAPPGPFAWPLIGNAAAVGQAAHLSFARLARRYGDVFQIRLGSCPIVVLNGERAIHQALVQQGSAFADRPAFASFRVVSGGRSMAFGHYSEHWKVQRRAAHSMMRNFFTRQPRSRQVLEGHVLSEARELVALLVRGSADGAFLDPRPLTVVAVANVMSAVCFGCRYSHDDPEFRELLSHNEEFGRTVGAGSLVDVMPWLQYFPNPVRTVFREFEQLNRNFSNFILDKFLRHCESLRPGAAPRDMMDAFILSAEKKAAGDSHGGGARLDLENVPATITDIFGASQDTLSTALQWLLLLFTRYPDVQTRVQAELDQVVGRDRLPCMGDQPNLPYVLAFLYEAMRFSSFVPVTIPHATTANTSVLGYHIPKDTVVFVNQWSVNHDPLKWPNPENFDPARFLDKDGLINKDLTSRVMIFSVGKRRCIGEELSKMQLFLFISILAHQCDFRANPNEPAKMNFSYGLTIKPKSFKVNVTLRESMELLDSAVQNLQAKETCQ
B5: the Km is 24 µM in the data set on CYP1B1 (reaction E2 → 2-OHE2, CYP1B1) and 14 µM in the data set on CYP1B1 (reaction E2 → 4-OHE2, CYP1B1).

B6: 48Arg-119Ser-432Val-453Asn: CYP1B1 variant enzyme (protein, UniProt Q16678 1-543, looked up, variant A119S)
Cytochrome P450 1B1: MGTSLSPNDPWPLNPLSIQQTTLLLLLSVLATVHVGQRLLRQRRRQLRSAPPGPFAWPLIGNAAAVGQAAHLSFARLARRYGDVFQIRLGSCPIVVLNGERAIHQALVQQGSAFADRPSFASFRVVSGGRSMAFGHYSEHWKVQRRAAHSMMRNFFTRQPRSRQVLEGHVLSEARELVALLVRGSADGAFLDPRPLTVVAVANVMSAVCFGCRYSHDDPEFRELLSHNEEFGRTVGAGSLVDVMPWLQYFPNPVRTVFREFEQLNRNFSNFILDKFLRHCESLRPGAAPRDMMDAFILSAEKKAAGDSHGGGARLDLENVPATITDIFGASQDTLSTALQWLLLLFTRYPDVQTRVQAELDQVVGRDRLPCMGDQPNLPYVLAFLYEAMRFSSFVPVTIPHATTANTSVLGYHIPKDTVVFVNQWSVNHDPLKWPNPENFDPARFLDKDGLINKDLTSRVMIFSVGKRRCIGEELSKMQLFLFISILAHQCDFRANPNEPAKMNFSYGLTIKPKSFKVNVTLRESMELLDSAVQNLQAKETCQ
With B6, the Km with CYP1B1 (reaction E2 → 2-OHE2, CYP1B1) is 19 µM; in the data set with CYP1B1 (reaction E2 → 4-OHE2, CYP1B1), 9.3 µM.

B7: 48Gly-119Ser-432Val-453Asn: CYP1B1 variant enzyme (protein, UniProt Q16678 1-543, looked up, variant R48G A119S)
Cytochrome P450 1B1: MGTSLSPNDPWPLNPLSIQQTTLLLLLSVLATVHVGQRLLRQRRRQLGSAPPGPFAWPLIGNAAAVGQAAHLSFARLARRYGDVFQIRLGSCPIVVLNGERAIHQALVQQGSAFADRPSFASFRVVSGGRSMAFGHYSEHWKVQRRAAHSMMRNFFTRQPRSRQVLEGHVLSEARELVALLVRGSADGAFLDPRPLTVVAVANVMSAVCFGCRYSHDDPEFRELLSHNEEFGRTVGAGSLVDVMPWLQYFPNPVRTVFREFEQLNRNFSNFILDKFLRHCESLRPGAAPRDMMDAFILSAEKKAAGDSHGGGARLDLENVPATITDIFGASQDTLSTALQWLLLLFTRYPDVQTRVQAELDQVVGRDRLPCMGDQPNLPYVLAFLYEAMRFSSFVPVTIPHATTANTSVLGYHIPKDTVVFVNQWSVNHDPLKWPNPENFDPARFLDKDGLINKDLTSRVMIFSVGKRRCIGEELSKMQLFLFISILAHQCDFRANPNEPAKMNFSYGLTIKPKSFKVNVTLRESMELLDSAVQNLQAKETCQ
With B7, the Michaelis constant (Km) with CYP1B1 (reaction E2 → 2-OHE2, CYP1B1) was 13 µM; in the data set with CYP1B1 (reaction E2 → 4-OHE2, CYP1B1), 5.5 µM.

B8: 48Arg-119Ala-432Val-453Ser: CYP1B1 variant enzyme (protein, UniProt Q16678 1-543, looked up, variant N453S)
Cytochrome P450 1B1: MGTSLSPNDPWPLNPLSIQQTTLLLLLSVLATVHVGQRLLRQRRRQLRSAPPGPFAWPLIGNAAAVGQAAHLSFARLARRYGDVFQIRLGSCPIVVLNGERAIHQALVQQGSAFADRPAFASFRVVSGGRSMAFGHYSEHWKVQRRAAHSMMRNFFTRQPRSRQVLEGHVLSEARELVALLVRGSADGAFLDPRPLTVVAVANVMSAVCFGCRYSHDDPEFRELLSHNEEFGRTVGAGSLVDVMPWLQYFPNPVRTVFREFEQLNRNFSNFILDKFLRHCESLRPGAAPRDMMDAFILSAEKKAAGDSHGGGARLDLENVPATITDIFGASQDTLSTALQWLLLLFTRYPDVQTRVQAELDQVVGRDRLPCMGDQPNLPYVLAFLYEAMRFSSFVPVTIPHATTANTSVLGYHIPKDTVVFVNQWSVNHDPLKWPNPENFDPARFLDKDGLISKDLTSRVMIFSVGKRRCIGEELSKMQLFLFISILAHQCDFRANPNEPAKMNFSYGLTIKPKSFKVNVTLRESMELLDSAVQNLQAKETCQ
For the molecule B8, the Km in the data set with CYP1B1 (reaction E2 → 2-OHE2, CYP1B1) is 49 µM; with CYP1B1 (reaction E2 → 4-OHE2, CYP1B1) it was 21 µM.
